Key:
human α-thrombin (human) [1] = target: human α-thrombin (human) (UniProt P00734); test: ELISA; HCII 1-75 immobilised on microtiter plates; α-thrombin or FPR-ck-thrombin incubated with or without competitor peptides or proteins; bound thrombin detected after washes with a horseradish peroxidase-conjugated sheep anti-human antibody (A490); one-site binding fit, IC50 = competitor concentration that reduces binding by 50%
[2] = target: FPR-chloromethyl ketone-thrombin (active site-inhibited α-thrombin) (human) (UniProt P00734); test: as above
human α-thrombin (human) [3] = target: human α-thrombin (human) (UniProt P00734)
activated protein C = activated protein C (UniProt P04070)
human α-thrombin (human) [4] = target: human α-thrombin (human) (UniProt P00734); remark: listed apart in the source
γT-thrombin = γT-thrombin (UniProt P00734)
human α-thrombin (human) [5] = target: human α-thrombin (human) (UniProt P00734); test: ELISA

Chain of activated protein C (P04070 whole entry, looked up): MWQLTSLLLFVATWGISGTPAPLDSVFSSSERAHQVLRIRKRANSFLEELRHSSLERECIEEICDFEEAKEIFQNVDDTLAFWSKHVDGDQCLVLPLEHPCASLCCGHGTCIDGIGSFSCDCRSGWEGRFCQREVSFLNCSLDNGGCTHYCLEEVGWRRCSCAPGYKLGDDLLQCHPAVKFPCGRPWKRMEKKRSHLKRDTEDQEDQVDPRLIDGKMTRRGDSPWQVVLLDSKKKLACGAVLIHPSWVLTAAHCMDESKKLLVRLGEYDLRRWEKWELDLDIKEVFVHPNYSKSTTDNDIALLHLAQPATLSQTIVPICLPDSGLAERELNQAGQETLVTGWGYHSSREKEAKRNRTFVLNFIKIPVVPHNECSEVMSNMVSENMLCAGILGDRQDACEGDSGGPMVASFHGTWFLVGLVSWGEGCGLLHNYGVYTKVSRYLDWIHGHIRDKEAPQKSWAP

Substance	second order rate constant of inhibition (k2) of APC (activated protein C)	second order rate constant of inhibition (k2) of α-thrombin (human α-thrombin (human) [4])	second order rate constant of inhibition (k2) of γT-thrombin (γT-thrombin)	IC50 [2]	concentration required to double the Thrombin Clotting Time (TCT) of diluted citrated human plasma (human α-thrombin (human) [3])	also measured
HCII 1-75 (recombinant protein of 84 amino acids: residues 1-75 of heparin cofactor II with an N-terminal nonapeptide tag) (domain or fragment)	–	–	–	9 µM	12 µM	IC50 (human α-thrombin (human) [1]): 8 µM
HV3API M358R (HV3 residues 54-66 fused through G6 to the N-terminus of API M358R) (from UniProt P01009 25-418)	31700 M⁻¹ s⁻¹	–	–	–	–	–
HAPI RCL5 (HAPI M358R with additional F352A/L353V/E354V/A355I/I356A/I460L substitutions) (from UniProt P01009 25-418)	–	–	–	17 µM	–	–
HV3_(54-66) synthetic peptide	–	–	–	–	0.45 µM	IC50 (human α-thrombin (human) [5]): 0.9 µM

Further lines, with some results ahead:

second order rate constant of inhibition (k2) of APC (activated protein C)	second order rate constant of inhibition (k2) of α-thrombin (human α-thrombin (human) [4])	second order rate constant of inhibition (k2) of γT-thrombin (γT-thrombin)	Substance	IC50 [2]	concentration required to double the Thrombin Clotting Time (TCT) of diluted citrated human plasma (human α-thrombin (human) [3])	also measured
28300 M⁻¹ s⁻¹	3.1e+06 M⁻¹ s⁻¹	567000 M⁻¹ s⁻¹	HAPI M358R (residues 1-75 of heparin cofactor II fused to API M358R) (from UniProt P01009 25-418)	–	–	–
28300 M⁻¹ s⁻¹	367000 M⁻¹ s⁻¹	98300 M⁻¹ s⁻¹	API M358R (alpha-1 proteinase inhibitor with the substitution of Met358 by Arg) (from UniProt P01009 25-418) (natural protein)	–	–	–
